Data reported in patent US20110160440A1, “Cab Molecules” (GENENCOR INTERNATIONAL, INC., priority 2003, published 2011).

T1: CEA (carcinoembryonic antigen) (Homo sapiens, UniProt P06731)
T1 construct: purchased Biodesign Intl., Saco, Me
T1 sequence (P06731 35-676): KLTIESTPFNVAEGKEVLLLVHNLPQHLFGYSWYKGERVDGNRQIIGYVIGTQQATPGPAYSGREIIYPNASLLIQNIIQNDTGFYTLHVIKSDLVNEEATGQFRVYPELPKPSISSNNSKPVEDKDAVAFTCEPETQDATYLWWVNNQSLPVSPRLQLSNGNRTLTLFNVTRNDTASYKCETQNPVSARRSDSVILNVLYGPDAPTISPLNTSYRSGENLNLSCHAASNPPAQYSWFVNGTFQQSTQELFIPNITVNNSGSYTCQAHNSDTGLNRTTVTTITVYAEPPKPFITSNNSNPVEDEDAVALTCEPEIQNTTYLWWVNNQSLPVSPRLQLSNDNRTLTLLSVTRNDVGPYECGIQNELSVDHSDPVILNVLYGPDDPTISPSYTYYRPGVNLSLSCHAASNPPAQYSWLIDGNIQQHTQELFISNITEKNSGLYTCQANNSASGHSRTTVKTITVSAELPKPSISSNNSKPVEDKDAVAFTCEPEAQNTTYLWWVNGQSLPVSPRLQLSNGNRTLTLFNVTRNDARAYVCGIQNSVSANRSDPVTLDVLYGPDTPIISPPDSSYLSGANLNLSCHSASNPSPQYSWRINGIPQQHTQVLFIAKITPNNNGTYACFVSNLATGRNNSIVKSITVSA


What was measured:
[1] = biological target: T1, CEA (carcinoembryonic antigen); assay: CEA-binding assay on CEA-coated plates, bound BLA activity read with nitrocefin; conditions: for binding to CEA / affinity in library screening: relative to parent clone
Description: (§1) Binding to CEA (carcinoembryonic antigen, Biodesign Intl., Saco, Me.) was measured using the following procedure: 96-well plates were coated with 100 ul per well of 5 ug/ml of CEA in 50 mM carbonate buffer pH 9.6 overnight. The plates were washed with PBST and blocked for 1-2 hours with 300 ul of casein (Pierce, Rockford, Ill.). 100 ul of sample from the production plate diluted 100-1000 fold was added to the CEA-coated plate and the plates were incubated for 2 h at room temperature. Subsequently, the plates were washed four times with PBST and 200 ul nitrocefin assay buffer was added, and the BLA activity was measured as described above.
as §1, with “Biodesign Intl., Saco. Me.) was” for “Biodesign Intl., Saco, Me.) was”, “Ill.). 100 n1 of sample” for “Ill.). 100 ul of sample”, “to the CEA coated plate and” for “to the CEA-coated plate and”, “described above. CEA binding was measured in 50 mM phosphate buffer pH 6.5 and in a separate experiment in 50 mM phosphate buffer pH 7.4.” for “described above.”
Winners were confirmed by culturing them in 5 ml of LB medium containing 5 mg/l chloramphenicol and 0.1 mg/l cefotaxime (Sigma) for 2 days at 37 C. Subsequently, the cultures were centrifuged and the pellet was suspended in 375 ul of BPER reagent to release the fusion protein. BLA activity was determined as above. One unit of activity was defined as the amount of BLA that leads to an absorbance increase of one mOD per minute. The samples were diluted based on their total content of BLA activity and the CEA-binding assay was performed as described above but adding various sample dilutions to each well.
In order to compare the target-binding properties of various CAB1 variants, we grew 5 ml cultures of TOP10F′ containing the corresponding expression plasmids, as provided above for 3 days at 25 C in LB medium containing 5 mg/l chloramphenicol. The cultures were centrifuged, and the resulting supernatant was discarded. The cell pellets were resuspended in 500 μL of B-PER reagent. This was incubated for 30 minutes. Lactamase concentration in each sample was determined using nitrocephin as substrate, as provided above.
Binding of the samples to microtiter plates coated with CEA was studied in 50 mM phosphate buffer at pH 6.5 and pH 7.4, as provided above.

[2] = test system: LS174T cells; assay: Binding of CAB variants to fixed LS174T cells; parameters: species or system human
Description: In a similar experiment, binding of variants to LS174T cells was measured. LS174T cells were inoculated in 96 well polystyrene plate at 1×10^5 cells/well in a medium containing 70% DMEM, 30% F12, non-essential amino acids, L-Glut, and Sodium Pyruvate (all from Mediatech). The plate was incubated at 37° C. in a humidified CO2 incubator for 20 hours. The cells were then fixed with 4% formaldehyde in PBS (Polysciences, Warrington, Pa.). The plate was washed with PBST, and 1 mg/ml NaBH4 (Sigma) was added into each well to quench any reactive group. Then the plate was washed again with PBST. Binding of CAB molecules was continued the same way as binding to CEA antigen.

[3] = test system: host proteases; assay: Screen for improved expression: total BLA activity and CEA-bound BLA activity of CAB1 fusion variants after 3 days of culture (resistance to host proteases); conditions: limited randomized library on pSW129.5 template
Description: Degradation seems to occur mainly in the scFv portion of the CAB1 fusion protein as the cultures contain significant amounts of free BLA after 3 days, which can be detected by Western blotting, or a nitrocefin (Oxoid, N.Y.) activity assay. Thus we applied a screen to library NA05 that was able to detect variants of CAB1-scFv that would resist degradation by host proteases over 3 days of culture at 37 C.
Library NA05 was plated onto agar plates with LA medium containing 5 mg/l chloramphenicol and 0.1 mg/l cefotaxime (Sigma). 910 colonies were transferred into a total of 10 96-well plates containing 100 ul/well of LA medium containing 5 mg/l chloramphenicol and 0.1 mg/l cefotaxime. […] The production plate was diluted 100-fold in PBST (PBS containing 0.125% Tween-20) and BLA activity was measured by transferring 20 ul diluted lysate into 180 ul of nitrocephin assay buffer (0.1 mg/ml nitrocephin in 50 mM PBS buffer containing 0.125% octylglucopyranoside (Sigma)) and the BLA activity was determined at 490 inn using a Spectramax plus plate reader (Molecular Devices, Sunnyvale, Calif.).
Binding to CEA (carcinoembryonic antigen, Biodesign Intl., Saco, Me.) was measured using the following procedure: 96-well plates were coated with 100 ul per well of 5 ug/ml of CEA in 50 mM carbonate buffer pH 9.6 overnight. […]

| Molecule | binding to CEA ([1]; pH 6.5) | binding to CEA ([1]; pH 7.4) | binding to LS174T cells ([2]; pH 6.5) | saturation levels of binding curves on LS174T cells ([2]; pH 6.5 vs pH 7.4) | binding to LS174T cells ([2]; pH 7.4, compared to CAB1.2) | binding to CEA / affinity in library screening [1] | expression [3] |
| --- | --- | --- | --- | --- | --- | --- | --- |
| CAB1.4 (protein) QVQLQQSGAELVKSGGSVKLSCTASGFNIKDSYMHWVRQGPEQGLEWIGWIDPENGDTEYAPKFQGKATFTTDTSSNTAYLQLSSLTSEDTAVYYCNEGTPTGPYYFDYWGQGTTVTVSSGGGGSGGGGSGGGGSENVLTQSPAIVSASPGEKVTITCSASSSVSYMHWFQQKPGTSPKLVIYDTSNLASGVPARFSGSGSGTSYSLTISRMEAEDAATYYCQQRDSYPLTFGAGTKLELKRAATPVSEKQLAEVVANTITPLMKAQSVPGMAVAVIYQGKPHYYTFGKADIAANKPVTPQTLFELGSISKTFTGVLGGDAIARGEISLDDAVTRYWPQLTGKQWQGIRMLDLATYTAGGLPLQVPDEVTDNASLLRFYQNWQPQWKPGTTRLYANASIGLFGALAVKPSGMPYEQAMTTRVLKPLKLDHTWINVPKAEEAHYAWGYRDGKAVRVSPGMLDAQAYGVKTNVQDMANWVMANMAPENVADASLKQGIALAQSRYWRIGSMYQGLGWEMLNWPVEANTVVETSFGNVALAPLPVAEVNPPAPPVKASWVHKTGSTGGFGSYVAFIPEKQIGIVMLANTSYPNPARVEAAYHILEALQ | significant binding | very weak binding | – | – | – | – | – |
| CAB1.7: best variant of library SW155 from SW149.5; SEQ ID NO:9 (protein, CAB1.7 protein variant) QVQLQQSGAELVKSGGSVKLSCTASGFNIKDSYMHWVRQGPEQGLEWIGWIDPENGDTEYAPKFQGKATFTTDTSSNTAYLQLSSLTSEDTAVYYCNEGLPLGAIYNDYWGQGTTVTVSSGGGGSGGGGSGGGGSENVLTQSPAIVSASPGEKVTITCSASSAVYAMHWFQQKPGTSPKLVIYDTSNLASGVPARFSGSGSGTSYSLTISRMEAEDAATYYCQQRDSYPLTFGAGTKLELDRAATPVSEKQLAEVVANTITPLMKAQSVPGMAVAVIYQGKPHYYTFGKADIAANKPVTPQTLFELGSISKTFTGVLGGDAIARGEISLDDAVTRYWPQLTGKQWQGIRMLDLATYTAGGLPLQVPDEVTDNASLLRFYQNWQPQWKPGTTRLYANASIGLFGALAVKPSGMPYEQAMTTRVLKPLKLDHTWINVPKAEEAHYAWGYRDGKAVRVSPGMLDAQAYGVKTNVQDMANWVMANMAPENVADASLKQGIALAQSRYWRIGSMYQGLGWEMLNWPVEANTVVETSFGNVALAPLPVAEVNPPAPPVKASWVHKTGSTGGFGSYVAFIPEKQIGIVMLANTSYPNPARVEAAYHILEALQ | – | – | closely resembles the binding curve of CAB1.2 | pH-dependent | significantly weaker binding | significantly improved binding to CEA | – |
| SW149.5 (protein) QVQLQQSGAELVKSGGSVKLSCTASGFNIKDSYMHWVRQGPEQGLEWIGWIDPENGDTEYAPKFQGKATFTTDTSSNTAYLQLSSLTSEDTAVYYCNEGLPLGAIYNDYWGQGTTVTVSSGGGGSGGGGSGGGGSENVLTQSPAIVSASPGEKVTITCSASSSVSYMHWFQQKPGTSPKLVIYDTSNLASGVPARFSGSGSGTSYSLTISRMEAEDAATYYCQQRDSYPLTFGAGTKLELKRAATPVSEKQLAEVVANTITPLMKAQSVPGMAVAVIYQGKPHYYTFGKADIAANKPVTPQTLFELGSISKTFTGVLGGDAIARGEISLDDAVTRYWPQLTGKQWQGIRMLDLATYTAGGLPLQVPDEVTDNASLLRFYQNWQPQWKPGTTRLYANASIGLFGALAVKPSGMPYEQAMTTRVLKPLKLDHTWINVPKAEEAHYAWGYRDGKAVRVSPGMLDAQAYGVKTNVQDMANWVMANMAPENVADASLKQGIALAQSRYWRIGSMYQGLGWEMLNWPVEANTVVETSFGNVALAPLPVAEVNPPAPPVKASWVHKTGSTGGFGSYVAFIPEKQIGIVMLANTSYPNPARVEAAYHILEALQ | – | – | – | – | – | improved expression and affinity | improved expression |
